1 substance from paper PMC10641286 can be followed below.

Read-outs that look alike come from different tables or passages of the source.

In test [1] the target is chymase (UniProt P23946).
In a further test the target is trypsin IV (UniProt P35030).
In test [2] the target is cathepsin G (UniProt P08311).
Test [3] deals with chymase (UniProt P23946). The test can be described thus: second-order rate constant of inhibition, discontinuous method (residual enzymatic activity); rIxsS41 25-300 nM (chymase) or 100-1600 nM (cathepsin G) pre-incubated 0-15 min at 37°C with constant protease (0.1 µg); kobs plotted against rIxsS41.
Test [4] concerns the target cathepsin G (UniProt P08311). The test is described as above.
In test [5] the target is chymase (UniProt P23946). The source holds these as a separate data set.
Test [6] addresses chymase (UniProt P23946). The experiment in a line: second-order rate constant of inhibition, discontinuous method (residual enzymatic activity); rIxsS41 25-300 nM (chymase) or 100-1600 nM (cathepsin G) pre-incubated 0-15 min at 37°C with constant protease (0.1 µg); kobs plotted against rIxsS41. This is another data set of the same source.
Test [7] addresses cathepsin G (UniProt P08311). The test is described as above. The source holds these as a separate data set.
Test [8] has as its target chymase (UniProt P23946). The experiment in a line: stoichiometry of inhibition (residual enzymatic activity, colorimetric substrate); various concentrations of rIxsS41 (molar ratios 0-10) with a constant concentration of protease, 1 h at 37°C; linear regression of the inhibitory curve. The settings on record: scale: molecules of rIxsS41 per molecule of protease.
In test [9] the target is cathepsin G (UniProt P08311). The description is as above. The note with it: scale: molecules of rIxsS41 per molecule of protease.

UniProt P23946, sequence (P23946 22-247): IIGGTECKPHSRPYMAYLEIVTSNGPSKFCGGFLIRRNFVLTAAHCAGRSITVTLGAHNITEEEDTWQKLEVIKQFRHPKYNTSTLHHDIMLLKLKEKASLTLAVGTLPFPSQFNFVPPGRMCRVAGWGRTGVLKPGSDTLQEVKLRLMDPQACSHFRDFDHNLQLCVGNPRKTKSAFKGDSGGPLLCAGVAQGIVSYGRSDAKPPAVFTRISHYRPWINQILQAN
UniProt P08311, sequence (P08311 21-244): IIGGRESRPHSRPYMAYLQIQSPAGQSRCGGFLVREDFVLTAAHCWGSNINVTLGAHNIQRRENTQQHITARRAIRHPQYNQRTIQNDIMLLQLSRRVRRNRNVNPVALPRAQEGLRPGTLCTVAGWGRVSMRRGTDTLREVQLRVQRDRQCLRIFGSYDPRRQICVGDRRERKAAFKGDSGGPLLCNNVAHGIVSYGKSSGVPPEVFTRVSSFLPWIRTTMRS
UniProt P35030, sequence (P35030 81-304): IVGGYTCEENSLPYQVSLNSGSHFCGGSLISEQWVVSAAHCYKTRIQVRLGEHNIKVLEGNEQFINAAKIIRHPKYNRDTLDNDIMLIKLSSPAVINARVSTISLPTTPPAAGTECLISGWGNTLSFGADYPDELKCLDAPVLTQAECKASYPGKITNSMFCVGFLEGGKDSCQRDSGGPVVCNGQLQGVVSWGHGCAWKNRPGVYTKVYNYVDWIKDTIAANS

For the substance “recombinant Ixodes scapularis nymph tick saliva serpin 41 (rIxsS41) (natural protein)”, in the test with chymase [1], the inhibition of enzymatic activity (chromogenic substrate hydrolysis), rIxsS41 1 µM, chymase 34.2 nM, pre-incubated 15 min at 37°C turned out to be 100%. For the same substance, the inhibition of enzymatic activity (chromogenic substrate hydrolysis), rIxsS41 1 µM, trypsin IV 12.5 nM, pre-incubated 15 min at 37°C with trypsin IV was 100%. The substance further returned an inhibition of enzymatic activity (chromogenic substrate hydrolysis), rIxsS41 1 µM, thrombin 19.8 nM, pre-incubated 15 min at 37°C in the test with thrombin of 100%. Moreover, the inhibition of enzymatic activity (chromogenic substrate hydrolysis), rIxsS41 1 µM, chymotrypsin 25.7 nM, pre-incubated 15 min at 37°C with chymotrypsin came to 100%. The same substance had an inhibition of enzymatic activity (chromogenic substrate hydrolysis), rIxsS41 1 µM, pancreatic trypsin 0.5 nM, pre-incubated 15 min at 37°C with pancreatic trypsin of 100%. Also, the inhibition of enzymatic activity (chromogenic substrate hydrolysis), rIxsS41 1 µM, cathepsin G 154.4 nM, pre-incubated 15 min at 37°C with cathepsin G [2] was found to be 100%. For the same substance, the ka (second-order rate constant of inhibition) in the test with chymase [3] was 6600 M⁻¹ s⁻¹; in the test with cathepsin G [4], 2400 M⁻¹ s⁻¹; with chymase [6], 2400 M⁻¹ s⁻¹; with cathepsin G [7] it was 1700 M⁻¹ s⁻¹. In addition, the C48/80-induced (chymase-mediated) paw edema in BALB/c mice, co-injection of C48/80 (1 µg) with rIxsS41 (25 µg); the chymase is the mouse's own in the test with chymase [5] came out at 85%. Besides, the values for the stoichiometry of inhibition (SI) with chymase [8] and in the test with cathepsin G [9] were 2.8 and 2.2, respectively.
